The values that follow are results of earlier work, collected in patent US20050054617A1, “Use of potent, selective and non toxic c-kit inhibitors for treating mastocytosis” (priority 2001, published 2005).

The data set relates to systemic mastocytosis. The following applies: person, infiltration of bone marrow, skin and gastric mucosa; recurrence after four months.

B1: INFγ: interferon used in the art for mastocytosis (protein, UniProt P01579 24-161, looked up)
Interferon gamma: QDPYVKEAENLKKYFNAGHSDVADNGTLFLGILKNWKEESDRKIMQSQIVSFYFKLFKNFKDDQSIQKSVETIKEDMNVKFFNSNKKKRDDFEKLTNYSVTDLNVQRKAIHELIQVMAELSPAAKTGKRKRSQMLFRG
For the molecule B1, the “clinical outcome in systemic mastocytosis” value is “improvement of the clinical situation and gastrointestinal and hematological signs”.
